Response data for 2 variants are collected here from PMC4226571, “The E6AP Binding Pocket of the HPV16 E6 Oncoprotein Provides a Docking Site for a Small Inhibitory Peptide Unrelated to E6AP, Indicating Druggability of E6” (PLoS ONE, 2014).

The chains are these.
B1: wildtype HPV31 E6 fused to the VP16 transcriptional activation domain [human papillomavirus type 31] / pep11** fused to the GAL4 DNA binding domain (parent complex)
chain 1: MFKNPAERPRKLHELSSALEIPYDELRLNCVYCKGQLTETEVLDFAFTDLTIVYRDDTPHGVCTKCLRFYSKVSEFRWYRYSVYGTTLEKLTNKGICDLLIRCITCQRPLCPEEKQRHLDKKKRFHNIGGRWTGRCIACWRRPRTETQV
chain 2: KEKEEYNSNCSCIACIGLI

Variants of B1 are the subject of this assay. The assay is described as follows: mammalian two-hybrid; E6 constructs contain an additional flag-tag between E6 and the VP16-AD; RLA relative to pep11**-GAL4-BD + empty pACT set at 1.0; read off a plot.
With chain 1 MFKNPAERPRKLHELSSALEIPYDELRLNCVYCKGQLTETEVLDFAFTDLTIVYRDDTPHGVCTKCLRFYSKVSEFRAYRYSVYGTTLEKLTNKGICDLLIRCITCQRPLCPEEKQRHLDKKKRFHNIGGRWTGRCIACWRRPRTETQV [chain 1 W78A], the response is approximately 1.2 RLA.

With chain 1 MFKNPAERPRKLHELSSALEIPYDELRLNCVYCKGQLTETEVLDFAFTDLTIVYRDDTPHGVCTKCLRFYSKVSEFRHYRYSVYGTTLEKLTNKGICDLLIRCITCQRPLCPEEKQRHLDKKKRFHNIGGRWTGRCIACWRRPRTETQV [chain 1 W78H], the response was approximately 39 RLA.
